The results in this text go back to the supplement of paper PMC5998384.

In data set [1] the test system is HeLa Kyoto. Nature of the data set: solubility in G1/S (NP-40 vs SDS abundance) (log2 ratio); higher = more soluble. The conditions noted are these: cell cycle stage: G1/S.
In data set [2] the test system is HeLa Kyoto. Nature of the data set: melting temperature (median over replicates), in situ; higher = more thermally stable.
Data set [3] has as its system HeLa Kyoto. Nature of the data set: thermal stability score vs G1/S (z-score of summed log2 fold changes over temperatures); higher = more thermally stable than in G1/S.
For data set [4], the system named is HeLa Kyoto. The experiment in a line: solubility change mitosis vs G1/S (difference of NP-40 vs SDS log2 ratios) (log2 ratio difference); higher = more soluble in mitosis.
Setting [5] is: cell cycle stage: early G1 (4.5 h after nocodazole release).
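Throughout, for melting temperature (median over replicates), in situ: HeLa Kyoto cells synchronized by double thymidine or nocodazole block, proteins quantified by TMT10plex mass spectrometry, three independent biological replicates.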
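Throughout, for solubility change mitosis vs G1/S (difference of NP-40 vs SDS log2 ratios): synchronized HeLa Kyoto cells (double thymidine block for G1/S, nocodazole release for mitosis), protein amounts in NP-40 versus SDS lysates quantified by mass spectrometry, three biological replicates.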
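Throughout, for solubility in G1/S (NP-40 vs SDS abundance): HeLa Kyoto cells arrested at G1/S by double thymidine block, proteins quantified by TMT10plex mass spectrometry in mild NP-40 versus SDS extracts, three biological replicates.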
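Throughout, for thermal stability score vs G1/S (z-score of summed log2 fold changes over temperatures): synchronized HeLa Kyoto cells, proteins quantified by TMT10plex mass spectrometry, three biological replicates, mitosis taken 0.5 h after nocodazole release, G1/S directly after double thymidine block.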

For “MLSLQYPDVYRDETAVQDYHGHKICDPYAWLEDPDSEQTKAFVEAQNKITVPFLEQCPIRGLYKERMTELYDYPKYSCHFKKGKRYFYFYNTGLQNQRVLYVQDSLEGEARVFLDPNILSDDGTVALRGYAFSEDGEYFAYGLSASGSDWVTIKFMKVDGAKELPDVLERVKFSCMAWTHDGKGMFYNSYPQQDGKSDGTETSTNLHQKLYYHVLGTDQSEDILCAEFPDEPKWMGGAELSDDGRYVLLSIREGCDPVNRLWYCDLQQESSGIAGILKWVKLIDNFEGEYDYVTNEGTVFTFKTNRQSPNYRVINIDFRDPEESKWKVLVPEHEKDVLEWIACVRSNFLVLCYLHDVKNILQLHDLTTGALLKTFPLDVGSIVGYSGQKKDTEIFYQFTSFLSPGIIYHCDLTKEELEPRVFREVTVKGIDASDYQTVQIFYPSKDGTKIPMFIVHKKGIKLDGSHPAFLYGYGGFNISITPNYSVSRLIFVRHMGGILAVANIRGGGEYGETWHKGGILANKQNCFDDFQCAAEYLIKEGYTSPKRLTINGGSNGGLLVAACANQRPDLFGCVIAQVGVMDMLKFHKYTIGHAWTTDYGCSDSKQHFEWLVKYSPLHNVKLPEADDIQYPSMLLLTADHDDRVVPLHSLKFIATLQYIVGRSRKQSNPLLIHVDTKAGHGAGKPTAKVIEEVSDMFAFIARCLNVDWIP [PREP]”, the “solubility in G1/S (log2)” value with HeLa Kyoto [1] was 0.00417. Besides, the melting temperature with HeLa Kyoto [2] (cell cycle stage: G1/S) was 49.3 °C; with HeLa Kyoto [2] (cell cycle stage: mitosis), 49.5 °C. In addition, the thermal stability score in the data set on HeLa Kyoto [3] (setting [5]) was -0.0879; with HeLa Kyoto [3] (cell cycle stage: mitosis), 0.619. Also, the “solubility change mitosis (log2)” value with HeLa Kyoto [4] is -0.186.

For the sequence “MLSLRVPLAPITDPQQLQLSPLKGLSLVDKENTPPALSGTRVLASKTARRIFQEPTEPKTKAAAPGVEDEPLLRENPRRFVIFPIEYHDIWQMYKKAEASFWTAEEVDLSKDIQHWESLKPEERYFISHVLAFFAASDGIVNENLVERFSQEVQITEARCFYGFQIAMENIHSEMYSLLIDTYIKDPKEREFLFNAIETMPCVKKKADWALRWIGDKEATYGERVVAFAAVEGIFFSGSFASIFWLKKRGLMPGLTFSNELISRDEGLHCDFACLMFKHLVHKPSEERVREIIINAVRIEQEFLTEALPVKLIGMNCTLMKQYIEFVADRLMLELGFSKVFRVENPFDFMENISLEGKTNFFEKRVGEYQRMGVMSSPTENSFTLDADF [RRM2]”, in the data set with HeLa Kyoto [1], the “solubility in G1/S (log2)” value is -0.239. In addition, the melting temperature with HeLa Kyoto [2] (cell cycle stage: G1/S) was 56.8 °C; in the data set on HeLa Kyoto [2] (cell cycle stage: mitosis), 56.4 °C. In addition, the thermal stability score in the data set on HeLa Kyoto [3] (setting [5]) was -6.63; with HeLa Kyoto [3] (cell cycle stage: mitosis), -8.23. Also, in the data set on HeLa Kyoto [4], the “solubility change mitosis (log2)” value stood at 0.14.

For “MLSQVYRCGFQPFNQHLLPWVKCTTVFRSHCIQPSVIRHVRSWSNIPFITVPLSRTHGKSFAHRSELKHAKRIVVKLGSAVVTRGDECGLALGRLASIVEQVSVLQNQGREMMLVTSGAVAFGKQRLRHEILLSQSVRQALHSGQNQLKEMAIPVLEARACAAAGQSGLMALYEAMFTQYSICAAQILVTNLDFHDEQKRRNLNGTLHELLRMNIVPIVNTNDAVVPPAEPNSDLQGVNVISVKDNDSLAARLAVEMKTDLLIVLSDVEGLFDSPPGSDDAKLIDIFYPGDQQSVTFGTKSRVGMGGMEAKVKAALWALQGGTSVVIANGTHPKVSGHVITDIVEGKKVGTFFSEVKPAGPTVEQQGEMARSGGRMLATLEPEQRAEIIHHLADLLTDQRDEILLANKKDLEEAEGRLAAPLLKRLSLSTSKLNSLAIGLRQIAASSQDSVGRVLRRTRIAKNLELEQVTVPIGVLLVIFESRPDCLPQVAALAIASGNGLLLKGGKEAAHSNRILHLLTQEALSIHGVKEAVQLVNTREEVEDLCRLDKMIDLIIPRGSSQLVRDIQKAAKGIPVMGHSEGICHMYVDSEASVDKVTRLVRDSKCEYPAACNALETLLIHRDLLRTPLFDQIIDMLRVEQVKIHAGPKFASYLTFSPSEVKSLRTEYGDLELCIEVVDNVQDAIDHIHKYGSSHTDVIVTEDENTAEFFLQHVDSACVFWNASTRFSDGYRFGLGAEVGISTSRIHARGPVGLEGLLTTKWLLRGKDHVVSDFSEHGSLKYLHENLPIPQRNTN [ALDH18A1]”, the “solubility in G1/S (log2)” value in the data set with HeLa Kyoto [1] was -0.0382. The melting temperature in the data set with HeLa Kyoto [2] (cell cycle stage: G1/S) worked out at 52.5 °C; in the data set on HeLa Kyoto [2] (cell cycle stage: mitosis), 52.1 °C. Also, the figures for the thermal stability score in the data set on HeLa Kyoto [3] (setting [5]) and in the data set with HeLa Kyoto [3] (cell cycle stage: mitosis) were -0.326 and -2.31, respectively. For the same sequence, in the data set on HeLa Kyoto [4], the “solubility change mitosis (log2)” value is -0.0142.

With “MLSRAVCGTSRQLAPVLGYLGSRQKHSLPDLPYDYGALEPHINAQIMQLHHSKHHAAYVNNLNVTEEKYQEALAKGDVTAQIALQPALKFNGGGHINHSIFWTNLSPNGGGEPKGELLEAIKRDFGSFDKFKEKLTAASVGVQGSGWGWLGFNKERGHLQIAACPNQDPLQGTTGLIPLLGIDVWEHAYYLQYKNVRPDYLKAIWNVINWENVTERYMACKK [SOD2]”, in the data set on HeLa Kyoto [1], the “solubility in G1/S (log2)” value was 0.614. Moreover, the melting temperature with HeLa Kyoto [2] (cell cycle stage: G1/S) is 58.3 °C; in the data set on HeLa Kyoto [2] (cell cycle stage: mitosis) it was 56.8 °C. For the same sequence, the thermal stability score in the data set on HeLa Kyoto [3] (setting [5]) is -0.479; in the data set on HeLa Kyoto [3] (cell cycle stage: mitosis), -0.233. Also, the “solubility change mitosis (log2)” value in the data set on HeLa Kyoto [4] was 0.133.

Turning to “MLSSTDFTFASWELVVRVDHPNEEQQKDVTLRVSGDLHVGGVMLKLVEQINISQDWSDFALWWEQKHCWLLKTHWTLDKYGVQADAKLLFTPQHKMLRLRLPNLKMVRLRVSFSAVVFKAVSDICKILNIRRSEELSLLKPSGDYFKKKKKKDKNNKEPIIEDILNLESSPTASGSSVSPGLYSKTMTPIYDPINGTPASSTMTWFSDSPLTEQNCSILAFSQPPQSPEALADMYQPRSLVDKAKLNAGWLDSSRSLMEQGIQEDEQLLLRFKYYSFFDLNPKYDAVRINQLYEQARWAILLEEIDCTEEEMLIFAALQYHISKLSLSAETQDFAGESEVDEIEAALSNLEVTLEGGKADSLLEDITDIPKLADNLKLFRPKKLLPKAFKQYWFIFKDTSIAYFKNKELEQGEPLEKLNLRGCEVVPDVNVAGRKFGIKLLIPVADGMNEMYLRCDHENQYAQWMAACMLASKGKTMADSSYQPEVLNILSFLRMKNRNSASQVASSLENMDMNPECFVSPRCAKRHKSKQLAARILEAHQNVAQMPLVEAKLRFIQAWQSLPEFGLTYYLVRFKGSKKDDILGVSYNRLIKIDAATGIPVTTWRFTNIKQWNVNWETRQVVIEFDQNVFTAFTCLSADCKIVHEYIGGYIFLSTRSKDQNETLDEDLFHKLTGGQD [FERMT1]”, in the data set with HeLa Kyoto [1], the “solubility in G1/S (log2)” value was -0.0778. Further, the values for the melting temperature in the data set with HeLa Kyoto [2] (cell cycle stage: G1/S) and in the data set on HeLa Kyoto [2] (cell cycle stage: mitosis) were 50.2 °C and 49.8 °C, respectively. In addition, the figures for the thermal stability score in the data set on HeLa Kyoto [3] (setting [5]) and with HeLa Kyoto [3] (cell cycle stage: mitosis) were -0.277 and -0.501, respectively. Moreover, the “solubility change mitosis (log2)” value with HeLa Kyoto [4] is -0.199.
